Reference: the DeepSol protein solubility set

Assay: soluble on expression in E. coli; label from the status in PepcDB or PDB records
In the case of “MGSDKIHHHHHHMYPKNTWYVACTPDEIATKPLGRQICGEKIVFYRARENQVAAVEDFCPHRGAPLSLGYVEDGNLVCGYHGLVMGCDGKTVSMPGQRVRGFPCNKTFAAVERYGFIWVWPGDQAQADPALIPHLEWAVSDEWAYGGGLFHIGCDYRLMIDNLMDLTHETYVHASSIGQKEIDEAPPVTTVTGDEVVTARHMENIMAPPFWRMALRGNGLADDVPVDRWQICRFTPPSHVLIEVGVAHAGKGGYHAEAQHKASSIVVDFITPESDTSIWYFWGMARNFAAHDQTLTDNIREGQGKIFSEDLEMLERQQQNLLAHPERNLLKLNIDAGGVQSRKVLERIIAQERAPQPQLIATSANPA”, the “soluble on expression in E. coli” value is reported as “not soluble”. For “MAVELRYDEEAVFLRRVNRFVVEVKSSRGVVRCHLMDTGRIDHLASPGRRGVLIAWLNRLGGKTVCRAQAFKTAGGVVAVVDSRVPNRLFAEAAPMVVGGDASIEAEREVFGSRLDFLISTGRGLWAVEVKGVNLSLDGVGLFPNAPSARAVKHLEVLARLAREGVKPLMAFVALRPDIRVFAPNYRVDRRFASLACTLLRRGLVGMVGIRVSIDLEPGVVRIRPVATAPVQCPPLQPGR”, the “soluble on expression in E. coli” value was “soluble”. In the case of “GPLGSKELKVTQPEKSVSVAAGDSTVLNCTLTSLLPVGPIKWYRGVGQSRLLIYSFTGEHFPRVTNVSDATKRNNMDFSIRISNVTPEDAGTYYCVKFQKGPSEPDTEIQSGGGTEVYVL”, the “soluble on expression in E. coli” value is reported as “soluble”. For “MGSDKIHHHHHHMIIQRVVLNSRPGKNGNPVAENFRVEEFSLLDALNEGQVQVRTLYLSVDPYMRCKMNEDTGTDYLAPWQLAQVADGGGIGIVEESKHQKLAKGDFVTSFYWPWQTKAILDGNGLEKVDPQLVDGHLSYFLGAIGMPGLTSLIGVQEKGHISAGSNQTMVVSGAAGACGSLAGQIGHLLGCSRVVGICGTQEKCLFLTSELGFDAAVNYKTGNVAEQLREACPGGVDVYFDNVGGDISNTVISQMNENSHIILCGQISQYNKDVPYPPPLPPAVEAIRKERNITRERFTVLNYKDKFEPGILQLSQWFKEGKLKVKETVAKGLENMGVAFQSMMTGGNVGKQIVCISEDSSL”, the “soluble on expression in E. coli” value was “soluble”. For “MPHWLVIDLEATTAEGGWPLEEMEIIEIGATLVAAADARELDHFQRFVRPVRRPLLTHFCRDLTHISQANVDGAAHLNTVWEAFERWLAQHRPRLAGWASWGDYDRRQLEQEWRQHGLTSQLSEVPHVNLKQRFGEVRQLPRPVGLNAALQLAGMSFQGQQHRALEDARNTARLLPLVLPVEHLEHHHHHH”, the “soluble on expression in E. coli” value was “soluble”. In the case of “MQNHVISLASAAERRAHIAATFGSRGIPFQFFDALMPSERLEQAMAELVPGLSAHPYLSGVEKACFMSHAVLWEQALDEGLPYIAVFEDDVLLGEGAEQFLAEDTWLEERFDKDSAFIVRLETMFMHVLTSPSGVADYGGRAFPLLESEHCGTAGYIISRKAMRFFLDRFAVLPPERLHPVDLMMFGNPDDREGMPVCQLNPALCAQELHYAKFHDQNSALGSLIEHDRRLNRKQQWRDSPANTFKHRLIRALTKIGREREKRRKRREQTIGKIIVPFQLEHHHHHH”, the “soluble on expression in E. coli” value is reported as “soluble”. In the case of “MGSDKIHHHHHHMLLVENFDLRATMEQPTSFDEMWGTSGSLREPYREFHDWFGSEDPARLRKKQRDADKLFRLTGITFNVYGKAEAEERLIPFDIIPRIISGSEWARLSRGIEQRVRAINAFLYDIYHKQEIVKAGRIPKEMISRNDAFLPHMIGVEPPGGVYTHIVGIDLVRTGPGEFYVLEDNARTPSGVSYMLENRETMLQMFPELFSQNRVQPVSNYPTDLRRSLAASAPQSCTGKPVVAVLTPGIYNSAYFEHAFLADKMGVELVEGQDLRVIDGRVAMRTTRGYKPIDVLYRRVDDEFLDPLNFNPESALGVPGIMDVYRAGNITIANAPGTGIADDKAIYSYMPEIVEFYTGERPLLQNVQTWRCSEPDALAYVLDNLEDLVVKEVHGSGGYGMLIGPTASKKDLAAFRRKLKARPGNYIAQPTLALSTVPIFSRAGLSPRHVDLRPFVLCSPNKVHITPGGLTRVALKKGSLVVNSSQGGGTKDTWVLED”, the “soluble on expression in E. coli” value is reported as “not soluble”. In the case of “KRSKVLSQASKNAEQFEDKFWSGTDLSQLYQKVKGRKDEIAGTEEIFFAGFTEFARLRKSNANSPAYIMEGTGRAMRVAVAREVDELETS”, the “soluble on expression in E. coli” value is reported as “not soluble”. In the case of “MSVFHDEVEIEDFEFDEEKDVYHYPCPCGDRFEIPREMLEMGEDVAQCPSCSLLIRVIYDPEDFVKLETISTSKPIAEPV”, the “soluble on expression in E. coli” value is reported as “not soluble”. In the case of “MGSDKIHHHHHHMRPETAIIEIHGQYRIHTEFYGNPAAQQTIILVNGSLSTTASFAQTVKYLQPHYNVVLYDQPYAGQSKPHNENHTPISKECEARILLELIERFRAEVVMSFSWGGVATLLALAQRPGRIRRAVVNSFSPQLNPAMLDYLHRGLDYLAACDRTQIGNLVNETIGRYLPQLFKRYNFRHVSSLDEHEYHQMHFHIREVLRLNADSYTESFAGIEIPMLFMNGELDIYTTPHEARQFGQLIRGAEFHTIRNAGHFIDVEHKAAWQQTQDALLAFLRPQRTQPLNPIYRPQPNGASVPLAALAS”, the “soluble on expression in E. coli” value is reported as “not soluble”. In the case of “MYKLDLPTLMDAFHKVFHVSMLRKCITHQENVISEPPPDLLENMMIVGMLIPNLLGVSSEMVGR”, the “soluble on expression in E. coli” value is reported as “not soluble”. With “MGIPSDFSNTGLTGFNVSSTKLVKIEQQYKGVKGKKFISPGGGKFVRIDDPGAVDSNGLRTADASNTSISLETGNTWLPRLHADGTLTCGGKCAWLECTNVTIPKNKRLWFRYAFLRFSSLPADSFSVLLCFPNDDTSVPPLPPYWICSVKELQENRGNINQTDWTECFVEIDKNADFHGTLRWVVATGHNLADQNSIPDNTRFTRPGCLLIDAIDIR” the “soluble on expression in E. coli” value was “not soluble”. With “MTDIAQLLGKDADSLLQHRCMTIPSDQLYLPGKDYVDRVMIDNNRPPAVLRNMQTLYNTGRLAGTGYLSILPVDQGVEHSAGASFAANPRYFDPKNIVELAIEAGCNCVASTYGVLASVSRRYAHRIPFLVKLNHNETLSYPTEYDQTLYASVEQAFNMGAVAVGATIYFGSEQSRRQIEEISAAFERAHELGMVTVLWAYLRNSSFKKDGVDYHVSADLTGQANHLAATIGADIVKQKMAENNGGYKAVNFGYTDDRVYSKLTSDNPIDLVRYQLANCYMGRAGLINSGGADGGDTDLGDAVRTAVINKRAGGMGLILGRKAFKKSMADGVKLINAVQDVYLDSKVTIA” the “soluble on expression in E. coli” value was “not soluble”. In the case of “MSLDSTTIIIYGEKLSDSQRAEVKELLEISDQEMVEEHDVTGQDYADYINGNPRSNMYSSAGIILESQGAGLEVNIVTPENITEVTAEMYENALLTAGAENATVNVVSPVQVSGHSALTGIYKAYDVEGEQLDKERMELANEELNVATDLVDNGDVNQEEVSNLLTEIKKMIAEQNPATREDVEQIVSEQLDQLEINLSEQDRQMLVDLFDKMKDLEIDFGAVKEQLDSITNSIVEKAEDLGLDEGFWDKVANFFRDLFRSIGNLFGEGHHHHHH”, the “soluble on expression in E. coli” value is reported as “soluble”. With “MEISNVYVPPRSSSSNHARLMTDFSNIFQTKSKSIISGDVNAHHSAWHSEGSEDTRGRELAELIDLHPDLIIQNEQVHTRADTYSISSPDITICTADLATKCHWSTLYKLGSDHIPMKLKINQAATPKRPKRLVANFKKANWQLFRDHIESRINGYSGPMDAIPMEKFFNKVILEADKKAVPKGSIDPKLKVDPKPLRLLAKEIADRETRNPLDPEIPILTRELATKRAERKNSEWRKKAHDQNAKRKSDVSSFWKLIKGVTKGRQYKGPVAFGDGLPKTGATIANKMAKSLVEAGRTKISHDEELKWRKNVRRNKRISKIAPLQDRITSIELHNMAIKMSPSAAIGPDGIAQIHIRKLPMCGYSFLAYLYNVSLSTNIIPDKWKKANVIMIPKPKKDPAIASSYRPISLLSPIAKLLEKAILKRIKNSIESPAHQHGFKPEHSTTTAVIQVTNDIIGGLNMKNPPERAIMACLDLRAAFDKVPTKKLCNDLMEAQGIEPKIKLWLGNYLHKRLIRTSHDNHWSKWHTLLGGVPQGSVISPNLFTFYLKDMPTQQDTMLISYADDMSIIARDKKIEKAAEKVQLHIDEIAKYLKERGMSISAEKSTVTVFSCDPKEHKTKPDIYWMDDPIPVINAPKLLGITLNTMTGTKDHVGNAIKSMQNKTRVIKSMAGTSWGNDRETMLYTTQALIKPTALYGAPAWTSLLSDTNLEKLEIAYRSALRACVGLTKDTPTDHIYQECRVLPLKEEYKLATQQMYLAAIKSNTHPCRDLKAKGQLERTSKPPRIPPLKLSDSEKLRLDNIPGDKTETQKKNHTKLVADFIRNAPNNRILNKPPPRVNYRDERTLPKETRCELARLRCGHSLLVEKYKARLEERQIKKCLNCGDEEGDVQHLLSCLQTPVPLEELWTSPLTVAAALGLPTKTPFDPGGGH” the “soluble on expression in E. coli” value was “not soluble”. In the case of “MDYIKGIAFDLYGTLFDVHSVVGRCDEAFPGRGREISALWRQKQLEYTWLRSLMNRYVNFQQATEDALRFTCRHLGLDLDARTRSTLCDAYLRLAPFSEVPDSLRELKRRGLKLAILSNGSPQSIDAVVSHAGLRDGFDHLLSVDPVQVYKPDNRVYELAEQALGLDRSAILFVASNAWDATGARYFGFPTCWINRTGNVFEEMGQTPDWEVTSLRAVVELFETAAGKAEKG”, the “soluble on expression in E. coli” value is reported as “soluble”. With “MGSDKIHHHHHHMNTQPVIGISGCLTGSAVRFDGGHKRMGFVMDELAQWVAFKPVCPEMAIGLPVPRPALRLVQTPVGEIRMRFSHAPHEDVTEKMADFASAHLATLGGLSGFIVCAKSPSCGMERVRLYDEKGNRGRKEGVGLFTGALMARYPWLPVEEDGRLHDPLLRENFVERVFALHELNALRARGLTRHGLLAFHSRYKLQLLAHHQAGYREIGPFVASLHEWEDLEAFFEVYREKLMAILKQPASRKNHTNVLMHIQGYFRDQLNSRQRGELREVILNYRAGLLPILAPLTLLKHYLAEYPDRYLQAQNYFDPYPQDLALRLTVN” the “soluble on expression in E. coli” value was “not soluble”. With “GSHMASMTGGQQMGRGSEFKKYLETNGIKPKQFHKKELIFNQWDPQEYCIFLYDGITKLTSISENGTIMNLQYYKGAFVIMSGFIDTETSVGYYNLEVISEQATAYVIKINELKELLSKNLTHFFYVFQTLQKQVSYSLAKFNDFSINGKLGSICGQLLILTYVYGKETPDGIKITLDNLTMQELGYSSGIAHSSAVSRIISKLKQEKVIVYKNSCFYVQNLDYLKRYAPKLDEWFYLACPATWGKLN” the “soluble on expression in E. coli” value was “soluble”. With “MSLNEPVMNKKHFADNNFEEFQRIIRAKLENFKDRIELIEELLSKYHPTRLKEYTKDGIIYSKQCEFYNFLVGMNEAPFICNRKDLYLKEKMHGGVKEVYFANKHGKILNDDLSEKYFSAIEISEYAPKSQSDLFDKINALDSEFIFMHAYSPKNSQVLKDKLAFTSRRIIISGGSKEQGMTLGCLSELVGNGDITLGSYGNSLVLFADSFEKMKQSVKECVSSLNAKGFLANAATFSMENYFFAKHCSFITLPFIFDVTSNNFADFIAMRAMSFDGKEDNNAWGNSVMTLKSEINSPFYLNFHMPTDEGHHHHHH” the “soluble on expression in E. coli” value was “not soluble”. For “MGSDKIHHHHHHMSLNLRDLEYFYQLSKLRSFTNVAKHFRVSQPTISYAIKRLETYYDCDLFYKDSSHQVVDLTPEGELLAMRTNEILSELNHTKKAIHRSSMKDFKVGFPPIISSYLLSKQDNLNFFNALHMIYGGSNELLSLLLNEEIDSSLLGSLEKIKHPQLEIEELFQKEFFIIMSDSHPLANEKELGFKDLLNEDFILLGEHNIHFNAFNRLNEKYNQSANVVLKLDDAHTIKELVRKNLGISLMADIRLSEDFKNLVKVPFIEEDKQFFHINYAYQKNSILSESEKNFLEILKTLK”, the “soluble on expression in E. coli” value was “not soluble”. For “MSLGKIRFGIVGTSNIANIFLRAASRVKDFELVAVYSRNLEKAREFGTLYGASIFFDDLEQMAKSKDIDAVYIASPNALHSKQTITCLKHKKHVLCEKSLASNLKEVKSMIKTAKDNNVLLMEAMRITCVPNFKAVKENLYKIGKIRRFFGSYCQYSSRYDKYKNGIIENAFKKELSNGALMDIGVYCIHPMVNLFGAPKTVKAVSHILQTGVDGEGSAVFQYDDMDAIIQYSKVADSYIPSEIQGEEGSIIIEKLNLFEKAIIKYRDGREEDISIPKEKAEEKPREIEGMYYELVEFISLINNNKIESNINSHENSIIVMEIMDEIRRQSSIVYPADSEGHHHHHH”, the “soluble on expression in E. coli” value was “soluble”.
